According to IntAct's records for PubMed 15965644:

B1: Hereditary hemochromatosis protein (Homo sapiens), Q30201 (parent)
chain: MGPRARPALLLLMLLQTAVLQGRLLRSHSLHYLFMGASEQDLGLSLFEALGYVDDQLFVFYDHESRRVEPRTPWVSSRISSQMWLQLSQSLKGWDHMFTVDFWTIMENHNHSKESHTLQVILGCEMQEDNSTEGYWKYGYDGQDHLEFCPDTLDWRAAEPRAWPTKLEWERHKIRARQNRAYLERDCPAQLQQLLELGRGVLDQQVPPLVKVTHHVTSSVTTLRCRALNYYPQNITMKWLKDKQPMDAKEFEPKDVLPNGDGTYQGWITLAVPPGEEQRYTCQVEHPGLDQPLIVIWEPSPSGTLVIGVISGIAVFVVILFIGILFIILRKRQGSRGAMGHYVLAERE

Variants of: B1
Settings: with b2mg_human B2M

Variant | effect of a mutation on the interaction
Q283P | disrupting interaction

Variants of: B1
Settings: with tfr1_human TFRC

Variant | effect of a mutation on the interaction
Q283P | disrupting interaction
